Assay results reported in article PMC13047697.
Like-named read-outs stand apart in the source and are kept apart here.

How the values were obtained:
Test in all cases: native MS
[1] = biological target: T1, SsoSSB WT (Saccharolobus solfataricus DSM 1617 …, UniProt Q97W73 1-148)
T1 sequence: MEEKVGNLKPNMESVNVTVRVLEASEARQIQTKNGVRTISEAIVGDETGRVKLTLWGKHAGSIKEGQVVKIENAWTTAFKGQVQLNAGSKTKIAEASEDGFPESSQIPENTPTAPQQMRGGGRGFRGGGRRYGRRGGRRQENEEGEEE

[2] = biological target: T1, SsoSSB WT; remark: listed apart in the source
[3] = biological target: T1, SsoSSB WT; remark: listed apart in the source
[4] = biological target: T1, SsoSSB WT; remark: listed apart in the source

Question: For TTTTTTTTTTTTTTTTTTTTTTTTTTTTTT (ssDNA) [T30], which Kd [1] is on record?
Answer: The Kd was 253 nM.

Question: What about the Kd [2] of the same binder?
Answer: The Kd was 197 nM.

Question: And the Kd [3]?
Answer: The Kd was 266 nM.

Question: And the Kd [4]?
Answer: Its Kd is 209 nM.

Question: With TTTTTTTTTTTTTTT (ssDNA) [T15] as the binder, how does the Kd [1] read?
Answer: Its Kd is 1240 nM.

Question: And the Kd [2]?
Answer: The Kd was 1940 nM.

Question: And the Kd [3]?
Answer: The Kd was 1320 nM.

Question: And the Kd [4]?
Answer: The Kd was 2080 nM.
